Test results reported in patent publication US20230348564A1, “ANTI-CANCER PROTEINS” (UNICHEM LABORATORIES LTD, priority 2020, published 2023).

What was measured:
[1] = system: IOMM-Lee cell line; test: cell cycle distribution analysis by Propidium Iodide (PI) staining; type: cell-based, Human; conditions: 1 μg/mL-500 μg/mL
Experimental: The evaluation of pro-apoptotic effect of SEQ ID NO. 2 in brain tumor cell lines U251MG & IOMM Lee was conducted. The cells were treated with SEQ ID NO. 2 at various concentrations around IC50 values. Resultant effect on apoptosis was determined via externalization of Phosphatidyl Serine (PS) on cell membrane by Annexin-V staining, mitochondrial membrane depolarization by JC-1 staining and cell cycle distribution analysis by Propidium Iodide (PI) staining. Increase in apoptotic markers in U251MG & IOMM-Lee cell lines reflected the pro-apoptotic potential of SEQ ID NO. 2 in brain tumor. • Externalization of PS on cell membrane by Annexin-V staining on U251MG cell line: SEQ ID NO.

[2] = system: VEGF release in PANC-1 cells; test: VEGF secretion in cancer cells (Human VEGF ELISA); type: cell-based; conditions: 24 h
Experimental: The cell lines were maintained in DMEM+10% […] (heat inactivated) at 37° C. with 5% CO2, and 95% humidity. Cells were counted and plated in 6-well plates for 24 h at a density of 0.5×10^6 cells/well. The cells were incubated overnight under growth conditions as described above so as to allow cell recovery and exponential growth. Cells were treated with each test item at different concentrations for 24h in serum free media. Doxorubicin was used as positive control. Secreted levels of VEGF were determined in supernatants after 24 hours using Human VEGF ELISA kit (R&D systems) as per manufacturer's protocol. Change in VEGF levels corresponding to each treatment was calculated using the following formula: […]

[3] = system: PANC-1; test: Cell cycle analysis (PI stain); type: cell-based, Human; conditions: 24 h
Experimental: (§1) The cell lines were maintained in DMEM+10% FBS (heat inactivated) at 37° C. with 5% CO2, and 95% humidity. Antibiotics Penicillin (100 U/mL) and Streptomycin (100 μg/mL) were added to the medium.
(§2) The stock solution of recombinant lectin having the amino acid sequence of SEQ ID NO. […] Doxorubicin was used as positive control and stock solution was prepared in DMSO.
(§3) Cells were counted using hemocytometer and plated in culture plates at density of 0.5×10^6 cells/well in DMEM+10% FBS in 6-well plates. Cells were incubated overnight to allow the cell recovery and exponential growth. Following overnight incubation, cells were sera starved in DMEM+1% FBS for 4 h. […] Untreated cells were included as Control group for test item. Cells treated with Doxorubicin were included as Positive Control group. DMSO treated cells were included as control group for Doxorubicin. After treatment, cells were incubated for a time period of 24 h. Following incubation, the pro-apoptotic effect by cell cycle was determined as follows: Cell cycle reagent contains PI stain, which stains DNA of cells in different phases of cell cycle; Sub(G0/G1), G1, S, G2 and M. Cells in Sub(G0/G1) phase correspond to apoptotic cells.
(§4) Cells were gently harvested into pre-labeled centrifuge tubes and centrifuged at 450 g for 5 min, RT (low brake). The supernatants were removed carefully (not to touch the pellet) and discarded. 1 mL of 1×PBS was added to the pellet and resuspended gently to make homogenous suspension. Cells were centrifuged at 450 g for 5 min, RT (low brake) (washing step). The supernatant was carefully removed leaving behind approx 100 μL of PBS. Cells were resuspended gently yet thoroughly in residual PBS. Ice-cold 70% ethanol (300 μLI) was added drop-wise into cells in each tube while vortexing at low speed (fixation step). Cells were stored at 4° C. for 24 h prior to staining.
(§5) Ethanol fixed cells were centrifuged at 450 g for 5 min, RT (low brake). The supernatant was carefully removed (not to touch the pellet) and discarded. (The pellet might not be visible but makes a thin film on surface of tube). 1 mL of 1×PBS was added into pellet and resuspended gently. Cells were incubated for 1 min at RT. Cells were centrifuged at 450 g for 5 min, RT (low brake) (washing step). The supernatant was removed carefully leaving behind approx 20 μL-50 μL of PBS. 200 μL of Cell Cycle reagent was added into each tube.
(§6) Cells were resuspended gently, mixed and were incubated for 30 min, RT, Dark. The stained samples were transferred into 96-well plates and acquired on flow cytometer (Guava technologies). Percentage of cells in Sub (G0/G1) phase were determined. Fold increase in apoptotic cells (treated with Test Items) was determined as compared to Control (untreated cells).

[4] = system: MDA-MB-231; test: Cell cycle analysis (PI stain); type: cell-based, Human; conditions: 24 h
Experimental: as §1, §2, §3, §4, §5, §6

B1: SEQ ID NO. 2: recombinant lectin; variant of the S. rolfsii lectin amino acid sequence (reported as Rec-2 in WO 2010/095143) (protein)
chain: TYKITVRVYQTNPDAFFHPVEKTVWKYANGGTWTITDDQHVLTMGGSGTSGTLRFHADNGESFTATFGVHNYKRWCDIVTNLAADETGMVINQQYYSQKNREEARERQLSNYQVKNAKGRNFQIVYTEAEGNDLHANLIIG
modifications: In vitro synthesis
increase in apoptotic population; Sub (G0/G1) as compared to Control (Untreated) [1]: 1.1-35.3 fold | Average absorbance at 450 nM ([2]; 2.5 μg/mL): 1.717 | Percentage decrease in VEGF levels ([2]; 2.5 μg/mL): −5.5% | VEGF level ([2]; 2.5 μg/mL): 1077.5 pg/mL | Average absorbance at 450 nM ([2]; 5 μg/mL): 1.821 | Percentage decrease in VEGF levels ([2]; 5 μg/mL): −12.3% | VEGF level ([2]; 5 μg/mL): 1146.8 pg/mL | Average absorbance at 450 nM ([2]; 10 μg/mL): 2.085 | Percentage decrease in VEGF levels ([2]; 10 μg/mL): −29.5% | VEGF level ([2]; 10 μg/mL): 1322.6 pg/mL | Average absorbance at 450 nM ([2]; 20 μg/mL): 2.202 | Percentage decrease in VEGF levels ([2]; 20 μg/mL): −37.2% | VEGF level ([2]; 20 μg/mL): 1400.6 pg/mL | Average absorbance at 450 nM ([2]; 80 μg/mL): 2.006 | Percentage decrease in VEGF levels ([2]; 80 μg/mL): −24.4% | VEGF level ([2]; 80 μg/mL): 1269.9 pg/mL | % Population of cells, Apoptotic Sub(G0/G1) ([3]; 2.5 μg/mL): 1.60% | % Population of cells, G0/G1 ([3]; 2.5 μg/mL): 38.89% | % Population of cells, G2/M ([3]; 2.5 μg/mL): 24.83% | % Population of cells, S ([3]; 2.5 μg/mL): 9.89% | % Population of cells, Apoptotic Sub(G0/G1) ([3]; 5 μg/mL): 2.54% | % Population of cells, G0/G1 ([3]; 5 μg/mL): 40.09% | % Population of cells, G2/M ([3]; 5 μg/mL): 23.83% | % Population of cells, S ([3]; 5 μg/mL): 10.31% | Fold Increase (wrt Control) Apoptotic Sub(G0/G1) ([3]; 5 μg/mL): 1.4 fold | % Population of cells, Apoptotic Sub(G0/G1) ([3]; 10 μg/mL): 4.23% | % Population of cells, G0/G1 ([3]; 10 μg/mL): 44.43% | % Population of cells, G2/M ([3]; 10 μg/mL): 23.92% | % Population of cells, S ([3]; 10 μg/mL): 10.15% | Fold Increase (wrt Control) Apoptotic Sub(G0/G1) ([3]; 10 μg/mL): 2.4 fold | % Population of cells, Apoptotic Sub(G0/G1) ([3]; 20 μg/mL): 3.92% | % Population of cells, G0/G1 ([3]; 20 μg/mL): 44.24% | % Population of cells, G2/M ([3]; 20 μg/mL): 23.79% | % Population of cells, S ([3]; 20 μg/mL): 10.83% | Fold Increase (wrt Control) Apoptotic Sub(G0/G1) ([3]; 20 μg/mL): 2.2 fold | % Population of cells, Apoptotic Sub(G0/G1) ([3]; 80 μg/mL): 6.21% | % Population of cells, G0/G1 ([3]; 80 μg/mL): 39.63% | % Population of cells, G2/M ([3]; 80 μg/mL): 27.41% | % Population of cells, S ([3]; 80 μg/mL): 9.58% | Fold Increase (wrt Control) Apoptotic Sub(G0/G1) ([3]; 80 μg/mL): 3.5 fold | % Population of cells, Apoptotic Sub(G0/G1) ([4]; 2.5 μg/mL): 10.05% | % Population of cells, G0/G1 ([4]; 2.5 μg/mL): 65.21% | % Population of cells, G2/M ([4]; 2.5 μg/mL): 12.97% | % Population of cells, S ([4]; 2.5 μg/mL): 6.10% | Fold Increase (wrt Control) Apoptotic Sub(G0/G1) ([4]; 2.5 μg/mL): 4.1 fold | % Population of cells, Apoptotic Sub(G0/G1) ([4]; 5 μg/mL): 5.75% | % Population of cells, G0/G1 ([4]; 5 μg/mL): 61.99% | % Population of cells, G2/M ([4]; 5 μg/mL): 15.40% | % Population of cells, S ([4]; 5 μg/mL): 8.15% | Fold Increase (wrt Control) Apoptotic Sub(G0/G1) ([4]; 5 μg/mL): 2.3 fold | % Population of cells, Apoptotic Sub(G0/G1) ([4]; 10 μg/mL): 6.65% | % Population of cells, G0/G1 ([4]; 10 μg/mL): 60.71% | % Population of cells, G2/M ([4]; 10 μg/mL): 15.50% | % Population of cells, S ([4]; 10 μg/mL): 7.36% | Fold Increase (wrt Control) Apoptotic Sub(G0/G1) ([4]; 10 μg/mL): 2.7 fold | % Population of cells, Apoptotic Sub(G0/G1) ([4]; 20 μg/mL): 15.43% | % Population of cells, G0/G1 ([4]; 20 μg/mL): 55.66% | % Population of cells, G2/M ([4]; 20 μg/mL): 13.35% | % Population of cells, S ([4]; 20 μg/mL): 6.55% | Fold Increase (wrt Control) Apoptotic Sub(G0/G1) ([4]; 20 μg/mL): 6.3 fold | % Population of cells, Apoptotic Sub(G0/G1) ([4]; 80 μg/mL): 35.62% | % Population of cells, G0/G1 ([4]; 80 μg/mL): 42.49% | % Population of cells, G2/M ([4]; 80 μg/mL): 10.14% | % Population of cells, S ([4]; 80 μg/mL): 8.09% | Fold Increase (wrt Control) Apoptotic Sub(G0/G1) ([4]; 80 μg/mL): 14.5 fold
